Assays:
FcγRIIAH131 with His tag [1] = molecular target: T1, FcγRIIAH131 with His tag (UniProt P12318 34-218); assay: SPR, His-tagged FcγRIIAH131 captured by anti-His antibody on the chip, antibody as analyte [row FcγRIIAH131, column GPC3×CD3 κλ002]
T1 construct: Bought protein; also called Fcγ RIIAH131 (Sino Biological #10374-H08H1)
T1 sequence (looked up): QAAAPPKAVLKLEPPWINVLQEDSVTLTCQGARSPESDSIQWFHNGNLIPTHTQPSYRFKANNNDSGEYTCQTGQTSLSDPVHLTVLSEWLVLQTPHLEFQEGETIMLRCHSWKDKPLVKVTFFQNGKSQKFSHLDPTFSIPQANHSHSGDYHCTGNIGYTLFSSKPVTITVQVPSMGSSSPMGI
Protocol: (§1) 50 μg/mL His-Tag antibodies were conjugated to a CMS chip through amino groups, and recombinant proteins FcγRI, FcγRIIAH131, and FcγRIIIAV158 with His tags (Sino Biological, #10256-H08H/10374-H08H1/10389-H08H1) were respectively captured for a capture time of 40 s at a flow rate of 10 μL/min. After the baseline was stable, the gradient-diluted antibody (the initial concentration of 37.5 μg/mL, 2-fold dilution) flowed through the chip at a flow rate of 30 μL/min, with a binding time of 120 s and a dissociation time of 200 s. The affinity constants were obtained by fitting them with Biacore evaluation software. It can be seen from FIG. 22 that the GPC3×CD3κλ bispecific antibody has no binding to FcγRI, FcγRIIAH131, and FcγRIIIAV158; The wild-type IgG4 control antibody can bind to FcγRI with high affinity and weakly bind to Fcγ RIIAH131.

FcγRI with His tag [2] = molecular target: T2, FcγRI with His tag (UniProt P12314 16-288); assay: SPR, His-tagged FcγRI captured by anti-His antibody on the chip, antibody as analyte [row FcγRI, column GPC3×CD3 κλ002]
T2 construct: Bought protein; also called FcγRI (Sino Biological #10256-H08H)
Protocol: as §1

[3] = molecular target: T3, FcγRIIIAV158 with His tag (UniProt P08637 17-208); assay: SPR, His-tagged FcγRIIIAV158 captured by anti-His antibody on the chip, antibody as analyte [row FcγRIIIAV158, column GPC3×CD3 κλ002]
T3 construct: Bought protein; also called FcγRIIIAV158 (Sino Biological #10389-H08H1)
Protocol: as §1

FcγRIIAH131 with His tag [4] = molecular target: T1, FcγRIIAH131 with His tag; assay: SPR, His-tagged FcγRIIAH131 captured by anti-His antibody on the chip, antibody as analyte [row FcγRIIAH131, column GPC3×CD3 κλ003]
Protocol: as §1

FcγRI with His tag [5] = molecular target: T2, FcγRI with His tag; assay: SPR, His-tagged FcγRI captured by anti-His antibody on the chip, antibody as analyte [row FcγRI, column GPC3×CD3 κλ003]
Protocol: as §1

[6] = molecular target: T3, FcγRIIIAV158 with His tag; assay: SPR, His-tagged FcγRIIIAV158 captured by anti-His antibody on the chip, antibody as analyte [row FcγRIIIAV158, column GPC3×CD3 κλ003]
Protocol: as §1

Measured: binding result

T3 sequence (P08637 17-208 F176V limits assumed): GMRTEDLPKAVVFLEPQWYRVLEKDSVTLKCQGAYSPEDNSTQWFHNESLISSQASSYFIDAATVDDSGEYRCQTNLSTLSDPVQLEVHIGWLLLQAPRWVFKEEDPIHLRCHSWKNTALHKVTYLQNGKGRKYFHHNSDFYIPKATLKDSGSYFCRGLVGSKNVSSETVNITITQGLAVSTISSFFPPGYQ
T2 sequence (P12314 16-288 limits assumed): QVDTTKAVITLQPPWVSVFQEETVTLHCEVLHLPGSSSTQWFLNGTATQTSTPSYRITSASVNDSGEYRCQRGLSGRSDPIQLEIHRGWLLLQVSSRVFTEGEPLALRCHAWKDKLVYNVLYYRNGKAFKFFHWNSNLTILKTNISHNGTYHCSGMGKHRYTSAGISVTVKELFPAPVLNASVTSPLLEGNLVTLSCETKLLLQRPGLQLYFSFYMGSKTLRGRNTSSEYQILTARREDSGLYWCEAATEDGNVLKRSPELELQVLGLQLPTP

B1: GPC3×CD3 κλ002 (bispecific antibody, human IgG4 S228P, kappa, lambda)
light 1: DVVMTQSPLSLPVTPGEPASISCRSSQSIVHSNGNTYLEWYLKKPGQSPQLLIYKVSNRFSGVPDRFSGSGSGTDFTLKISRVEAEDVGVYFCLQVTHVPLTFGQGTKLEIKRTVAAPSVFIFPPSDEQLKSGTASVVCLLNNFYPREAKVQWKVDNALQSGNSQESVTEQDSKDSTYSLSSTLTLSKADYEKHKVYACEVTHQGLSSPVTKSFNRGEC
heavy 1: QVQLVQSGAEVKKPGSSVKVSCKASGYTFADYEIHWVREAPGQGLEWMGAIHPGSGGTAYAQKFQGRVTLTADESSTTAYMELSSLRSEDTAVYYCTRYYSFAYWGQGTLVTVSSASTKGPSVFPLAPCSRSTSESTAALGCLVKDYFPEPVTVSWNSGALTSGVHTFPAVLQSSGLYSLSSVVTVPSSSLGTKTYTCNVDHKPSNTKVDKRVESKYGPPCPPCPAPEFEGGPSVFLFPPKPKDTLMISRTPEVTCVVVDVSQEDPEVQFNWYVDGVEVHNAKTKPREEQFNSTYRVVSVLTVLHQDWLNGKEYKCKVSNKGLASSIEKTISKAKGQPREPQVCTLPPSQEEMTKNQVSLSCAVKGFYPSDIAVEWESNGQPENNYKTTPPVLDSDGSFFLVSKLTVDKSRWQEGNVFSCSVMHEALHNHYTQKSLSLSLGK
light 2: QAVVTQEPSLTVSPGGTVTLTCRSSTGAVTTSNYANWVQEKPGQAPRGLIGGTNKRAPWTPARFSGSLLGGKAALTITGAQAEDEAEYYCVLWYSNLWVFGGGTKLTVLGQPKAAPSVTLFPPSSEELQANKATLVCLISDFYPGAVTVAWKADSSPVKAGVETTTPSKQSNNKYAASSYLSLTPEQWKSHRSYSCQVTHEGSTVEKTVAPTECS
heavy 2: EVQLVESGGGLVQPGGSLRLSCAASGFTFNTYAMNWVRKAPGKGLEWVGRIRSKYNNYATYYADSVKDRFTISRDDSKNSLYLQMNSLKTEDTAVYYCVRHGNFGNSYVSWFAYWGQGTLVTVSSASTKGPSVFPLAPCSRSTSESTAALGCLVKDYFPEPVTVSWNSGALTSGVHTFPAVLQSSGLYSLSSVVTVPSSSLGTKTYTCNVDHKPSNTKVDKRVESKYGPPCPPCPAPEFEGGPSVFLFPPKPKDTLMISRTPEVTCVVVDVSQEDPEVQFNWYVDGVEVHNAKTKPREEQFNSTYRVVSVLTVLHQDWLNGKEYKCKVSNKGLASSIEKTISKAKGQPREPQVYTLPPCQEEMTKNQVSLWCLVKGFYPSDIAVEWESNGQPENNYKTTPPVLDSDGSFFLYSKLTVDKSRWQEGNVFSCSVMHEALHNHYTQKSLSLSLGK
notes: also called GPC3 x CD3 κλ002; GPC3×CD3κλ bispecific antibody
no binding: FcγRIIAH131 with His tag [1] | FcγRI with His tag [2] | [3]

B2: GPC3×CD3 κλ003 (bispecific antibody, human IgG4 S228P, kappa, lambda)
light 1: DVVMTQSPLSLPVTPGEPASISCRSSQSIVHSNGNTYLEWYLKKPGQSPQLLIYKVSNRFSGVPDRFSGSGSGTDFTLKISRVEAEDVGVYFCLQVTHVPLTFGQGTKLEIKRTVAAPSVFIFPPSDKKLKSGTASVVCLLNNFYPREAKVQWKVDNALQSGNSQESVTEQDSKDSTYSLSSTLTLSKADYEKHKVYACEVTHQGLSSPVTKSFNRGEC
heavy 1: QVQLVQSGAEVKKPGSSVKVSCKASGYTFADYEIHWVREAPGQGLEWMGAIHPGSGGTAYAQKFQGRVTLTADESSTTAYMELSSLRSEDTAVYYCTRYYSFAYWGQGTLVTVSSASTKGPSVFPLAPCSRSTSESTAALGCLVEDYFPEPVTVSWNSGALTSGVHTFPAVLQSSGLYSLSSVVTVPSSSLGTKTYTCNVDHKPSNTKVDERVESKYGPPCPPCPAPEFEGGPSVFLFPPKPKDTLMISRTPEVTCVVVDVSQEDPEVQFNWYVDGVEVHNAKTKPREEQFNSTYRVVSVLTVLHQDWLNGKEYKCKVSNKGLASSIEKTISKAKGQPREPQVCTLPPSQEEMTKNQVSLSCAVKGFYPSDIAVEWESNGQPENNYKTTPPVLDSDGSFFLVSKLTVDKSRWQEGNVFSCSVMHEALHNHYTQKSLSLSLGK
light 2: QAVVTQEPSLTVSPGGTVTLTCRSSTGAVTTSNYANWVQEKPGQAPRGLIGGTNKRAPWTPARFSGSLLGGKAALTITGAQAEDEAEYYCVLWYSNLWVFGGGTKLTVLGQPKAAPSVTLFPPSSEELQANKATLVCLISDFYPGAVTVAWKADSSPVKAGVETTTPSKQSNNKYAASSYLSLTPEQWKSHRSYSCQVTHEGSTVEKTVAPTECS
heavy 2: EVQLVESGGGLVQPGGSLRLSCAASGFTFNTYAMNWVRKAPGKGLEWVGRIRSKYNNYATYYADSVKDRFTISRDDSKNSLYLQMNSLKTEDTAVYYCVRHGNFGNSYVSWFAYWGQGTLVTVSSASTKGPSVFPLAPCSRSTSESTAALGCLVKDYFPEPVTVSWNSGALTSGVHTFPAVLQSSGLYSLSSVVTVPSSSLGTKTYTCNVDHKPSNTKVDKRVESKYGPPCPPCPAPEFEGGPSVFLFPPKPKDTLMISRTPEVTCVVVDVSQEDPEVQFNWYVDGVEVHNAKTKPREEQFNSTYRVVSVLTVLHQDWLNGKEYKCKVSNKGLASSIEKTISKAKGQPREPQVYTLPPCQEEMTKNQVSLWCLVKGFYPSDIAVEWESNGQPENNYKTTPPVLDSDGSFFLYSKLTVDKSRWQEGNVFSCSVMHEALHNHYTQKSLSLSLGK
notes: also called GPC3 x CD3 κλ003; GPC3×CD3κλ bispecific antibody
no binding: FcγRIIAH131 with His tag [4] | FcγRI with His tag [5] | [6]

Reference: patent US20240043568A1 (KEYMED BIOSCIENCES, published 2024)
